# Reference: patent US20230103563A1 (Sanofi, published 2023)
# B1: protein variant (9), DVD-Split CH2 tetravalent bispecific antibody (bispecific antibody, human IgG4 S228P, kappa)
# chain 1: DIVLTQSPASLAVSLGQRATISCRASESVDSYGQSYMHWYQQKAGQPPKLLIYLASNLESGVPARFSGSGSRTDFTLTIDPVQAEDAATYYCQQNAEDSRTFGGGTKLEIKGGGGSGGGGSDIQMTQSPASLSVSVGDTITLTCHASQNIDVWLSWFQQKPGNIPKLLIYKASNLHTGVPSRFSGSGSGTGFTLTISSLQPEDIATYYCQQAHSYPFTFGGGTKLEIKRTVAAPSVFIFPPSDEQLKSGTASVVCLLNNFYPREAKVQWKVDNALQSGNSQESVTEQDSKDSTYSLSSTLTLSKADYEKHKVYACEVTHQGLSSPVTKSFNRGECGGPSVFLFPPKPKDTLMISRTPEVTCVVVDVSHEDPEVKFNWYVDGVEVHN
# chain 2: not shown
# notes: variant (2) fused to an IgG Fc-domain
# B2: protein variant (10), CODV-Split CH2 tetravalent bispecific antibody (bispecific antibody, human IgG4 S228P, kappa)
# chain 1: DIVLTQSPASLAVSLGQRATISCRASESVDSYGQSYMHWYQQKAGQPPKLLIYLASNLESGVPARFSGSGSRTDFTLTIDPVQAEDAATYYCQQNAEDSRTFGGGTKLEIKGQPKAAPSDIQMTQSPASLSVSVGDTITLTCHASQNIDVWLSWFQQKPGNIPKLLIYKASNLHTGVPSRFSGSGSGTGFTLTISSLQPEDIATYYCQQAHSYPFTFGGGTKLEIKTKGPSVFRTVAAPSVFIFPPSDEQLKSGTASVVCLLNNFYPREAKVQWKVDNALQSGNSQESVTEQDSKDSTYSLSSTLTLSKADYEKHKVYACEVTHQGLSSPVTKSFNRGECGGPSVFLFPPKPKDTLMISRTPEVTCVVVDVSHEDPEVKFNWYVDGVEVHN
# chain 2: not shown
# notes: variant (3) fused to an IgG Fc-domain
# B3: protein variant (6), Diabody Split CH2 (included) ("Splite") (bispecific antibody)
# chain 1: DIVLTQSPASLAVSLGQRATISCRASESVDSYGQSYMHWYQQKAGQPPKLLIYLASNLESGVPARFSGSGSRTDFTLTIDPVQAEDAATYYCQQNAEDSRTFGGGTKLEIKGGPSVFLFPPKPKDTLMISRTPEVTCVVVDVSHEDPEVKFNWYVDGVEVHNGGGGSGGGGSGGGGSDIQMTQSPASLSVSVGDTITLTCHASQNIDVWLSWFQQKPGNIPKLLIYKASNLHTGVPSRFSGSGSGTGFTLTISSLQPEDIATYYCQQAHSYPFTFGGGTKLEIK
# chain 2: EVQLKESGPGLVAPGGSLSITCTVSGFSLTDSSINWVRQPPGKGLEWLGMIWGDGRIDYADALKSRLSISKDSSKSQVFLEMTSLRTDDTATYYCARDGYFPYAMDFWGQGTSVTVSSGGGAKTKPREEQYNSTYRVVSVLTVLHQDWLNGKEYKCKVSNKALPAPIEKTISKAKGQPREQVQLQQSGPELVKPGASVKISCKASGYSFTSYWIHWIKQRPGQGLEWIGMIDPSDGETRLNQRFQGRATLTVDESTSTAYMQLRSPTSEDSAVYYCTRLKEYGNYDSFYFDVWGAGTLVTVSSHHHHHH
# notes: Splite diabody with other linkers than variant (4); also called splite diabody
# B4: protein variant (8), Diabody Split CH2 tetravalent bispecific antibody (bispecific antibody, human IgG4 S228P)
# chain 1: DIVLTQSPASLAVSLGQRATISCRASESVDSYGQSYMHWYQQKAGQPPKLLIYLASNLESGVPARFSGSGSRTDFTLTIDPVQAEDAATYYCQQNAEDSRTFGGGTKLEIKGGGSGGGGQVQLQQSGPELVKPGASVKISCKASGYSFTSYWIHWIKQRPGQGLEWIGMIDPSDGETRLNQRFQGRATLTVDESTSTAYMQLRSPTSEDSAVYYCTRLKEYGNYDSFYFDVWGAGTLVTVSSGGPSVFLFPPKPKDTLMISRTPEVTCVVVDVSHEDPEVKFNWYVDGVEVHN
# chain 2: not shown
# notes: variant (1) fused to an IgG Fc-domain
# B5: protein variant (1), Diabody-added Split CH2 (diabody split CH2, anti-IL4/anti-IL13) (bispecific antibody)
# chain 1: B4 chain 1
# chain 2: DIQMTQSPASLSVSVGDTITLTCHASQNIDVWLSWFQQKPGNIPKLLIYKASNLHTGVPSRFSGSGSGTGFTLTISSLQPEDIATYYCQQAHSYPFTFGGGTKLEIKGGGSGGGGEVQLKESGPGLVAPGGSLSITCTVSGFSLTDSSINWVRQPPGKGLEWLGMIWGDGRIDYADALKSRLSISKDSSKSQVFLEMTSLRTDDTATYYCARDGYFPYAMDFWGQGTSVTVSSGGGGSGGGGSAKTKPREEQYNSTYRVVSVLTVLHQDWLNGKEYKCKVSNKALPAPIEKTISKAKGQPREHHHHHH
# notes: Two chains joined by the disulfide bond of the reassembled IgG1 split CH2 domain
# B6: protein variant (7), Diabody Split CH2 (included) ("Splite") (bispecific antibody)
# chain 1: DIVLTQSPASLAVSLGQRATISCRASESVDSYGQSYMHWYQQKAGQPPKLLIYLASNLESGVPARFSGSGSRTDFTLTIDPVQAEDAATYYCQQNAEDSRTFGGGTKLEIKGGPSVFLFPPKPKDTLMISRTPEVTCVVVDVSHEDPEVKFNWYVDGVEVHNDIQMTQSPASLSVSVGDTITLTCHASQNIDVWLSWFQQKPGNIPKLLIYKASNLHTGVPSRFSGSGSGTGFTLTISSLQPEDIATYYCQQAHSYPFTFGGGTKLEIK
# chain 2: EVQLKESGPGLVAPGGSLSITCTVSGFSLTDSSINWVRQPPGKGLEWLGMIWGDGRIDYADALKSRLSISKDSSKSQVFLEMTSLRTDDTATYYCARDGYFPYAMDFWGQGTSVTVSSGGGGSGGGGSGGGGSAKTKPREEQYNSTYRVVSVLTVLHQDWLNGKEYKCKVSNKALPAPIEKTISKAKGQPREQVQLQQSGPELVKPGASVKISCKASGYSFTSYWIHWIKQRPGQGLEWIGMIDPSDGETRLNQRFQGRATLTVDESTSTAYMQLRSPTSEDSAVYYCTRLKEYGNYDSFYFDVWGAGTLVTVSSHHHHHH
# notes: as for B3
# B7: protein variant (4), Diabody Split CH2 (included) ("Splite") (bispecific antibody, IgG1)
# chain 1: B3 chain 1
# chain 2: B6 chain 2
# notes: Split IgG1 CH2 domain inserted between the variable domains; also called splite diabody
# B8: protein variant (5), Diabody Split CH2 (included) ("Splite") (bispecific antibody)
# chain 1: B6 chain 1
# chain 2: B3 chain 2
# notes: as for B3
# Key:
# [1] = target: T1, human IL4 (IL004, Millipore) (human, UniProt P05112 25-153); test: SPR (Biacore 3000), construct captured, IL4 as analyte; summary table
# T1 construct: Bought protein, used as analyte in SPR; also called interleukin IL4
# T1 sequence (looked up): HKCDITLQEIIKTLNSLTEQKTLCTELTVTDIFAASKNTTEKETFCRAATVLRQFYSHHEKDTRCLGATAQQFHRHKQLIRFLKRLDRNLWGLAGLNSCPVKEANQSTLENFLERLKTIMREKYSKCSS
# Method: (§1) Binding of antigens to the antibody constructs was measured using surface plasmon resonance (SPR) on a BIAcore 3000 instrument (GE Healthcare) with HBS-EP buffer (GE Healthcare). As antigens human IL4 (IL004, Millipore) and human IL13 (IL012, Millipore) were used. The capture antibody (human antibody capture kit, His capture kit, Fab capture kit, GE Life Sciences) was immobilized via primary amine groups (11000 RU) on a research grade CMS chip (GE Life Sciences) using standard procedures. […] The antigens human IL4 and human IL13 were used as analytes and injected for 240 sec with a dissociation time of 300 sec at a flow rate of 30 μL/min. IL4 and IL13 were used in a dilution series of 0.1 nM to 3 nM and 0.8 nM to 25 nM, respectively. Chip surfaces were regenerated with 2 min injects of the regeneration buffer provided with the capture kit. Sensorgrams were double referenced with a blank chip surface and HBS-EP buffer blanks. Recombinant human neonatal Fc-receptor (FcRn) protein was immobilized via primary amine groups (200 RU) in the sample flow cell compartment of a research grade CMS chip (GE Life Sciences) using standard procedures. The reference flow cell compartment was activated and deactivated without FcRn immobilization to generate a blank chip surface. For the analysis an assay buffer with pH 6.0 was used (150 mM NaCl, 20 mM Na-phosphate, 0.05% surfactant P20, pH6.0). The antibody was used as analyte at 800 nM dilution in assay buffer and injected over reference and sample flow cells for 240 sec with a dissociation time of 300 sec at a flow rate of 30 μL/min. Chip surfaces were regenerated with 2 min injects of HBS-EP buffer at 30 μl/min. Sensorgrams were double referenced with a the blank chip surface and HBS-EP buffer blanks. All data analysis was done using the BIAevaluation software v4.1.
# [2] = target: T1, human IL4 (IL004, Millipore); test: SPR (Biacore), variant captured with human antibody capture kit, IL4 as analyte
# Method: as §1
# [3] = target: T1, human IL4 (IL004, Millipore); test: SPR (Biacore), variant captured with His-capture kit, IL4 as analyte
# Method: as §1
Binder,Kd [1] [nM],Kd [2] [nM],koff [2] [s⁻¹],kon [2] [M⁻¹ s⁻¹],Ka [3] [M⁻¹],Kd [3] [nM],koff [3] [s⁻¹],kon [3] [M⁻¹ s⁻¹]
B1,0.00609,0.00609,0.000108,1.77e+07,,,,
B2,0.000222,0.000222,0.000204,9.19e+08,,,,
B3,0.0878,,,,1.14e+10,0.0878,0.000261,2.97e+06
B4,0.00143,0.00143,0.000135,9.49e+07,,,,
B5,0.016,,,,6.24e+10,0.016,0.00117,7.32e+07
B6,0.0685,,,,1.46e+10,0.0685,0.000232,3.38e+06
B7,0.0648,,,,,0.0648,0.000224,3.46e+06
B8,0.0403,,,,,0.0403,0.000165,4.1e+06
